Measured values published in EP3177737B1 (Arizona Board of Regents on behalf of the University of …, dated 2020).

B1: Peptide 15: Ac-Nle-c[Asp-(NMe)His-nal-(NMe)Arg-Trp-Lys]-NH2 (peptide)
peptide: LDHXRWK
modifications: N-terminal acetyl; Nle at 4; D-Nal(2') (nal) at 7; Asp5-Lys10 side-chain lactam ring; C-terminal amide; backbone N-methyl on His6 and Arg8 (alpha-MSH numbering 4-10)
B2: Peptide 2: Ac-Nle-c[Asp-His-nal-Arg-Trp-(NMe)Lys]-NH2 (peptide)
peptide: LDHXRWK
modifications: N-terminal acetyl; Nle at 4; D-Nal(2') (nal) at 7; Asp5-Lys10 side-chain lactam ring; C-terminal amide; backbone N-methyl on Lys10 (alpha-MSH numbering 4-10)
B3: Peptide 3: Ac-Nle-c[Asp-His-nal-Arg-(NMe)Trp-Lys]-NH2 (peptide)
peptide: LDHXRWK
modifications: N-terminal acetyl; Nle at 4; D-Nal(2') (nal) at 7; Asp5-Lys10 side-chain lactam ring; C-terminal amide; backbone N-methyl on Trp9 (alpha-MSH numbering 4-10)
B4: Peptide 4: Ac-Nle-c[Asp-His-nal-(NMe)Arg-Trp-Lys]-NH2 (peptide)
peptide: LDHXRWK
modifications: N-terminal acetyl; Nle at 4; D-Nal(2') (nal) at 7; Asp5-Lys10 side-chain lactam ring; C-terminal amide; backbone N-methyl on Arg8 (alpha-MSH numbering 4-10)
B5: Peptide 6: Ac-Nle-c[Asp-(NMe)His-nal-Arg-Trp-Lys]-NH2 (peptide)
peptide: LDHXRWK
modifications: N-terminal acetyl; Nle at 4; D-Nal(2') (nal) at 7; Asp5-Lys10 side-chain lactam ring; C-terminal amide; backbone N-methyl on His6 (alpha-MSH numbering 4-10)
B6: Peptide 7: Ac-Nle-c[Asp-His-nal-Arg-(NMe)Trp-(NMe)Lys]-NH2 (peptide)
peptide: LDHXRWK
modifications: N-terminal acetyl; Nle at 4; D-Nal(2') (nal) at 7; Asp5-Lys10 side-chain lactam ring; C-terminal amide; backbone N-methyl on Trp9 and Lys10 (alpha-MSH numbering 4-10)
B7: Peptide 8: Ac-Nle-c[Asp-His-nal-(NMe)Arg-Trp-(NMe)Lys]-NH2 (peptide)
peptide: LDHXRWK
modifications: N-terminal acetyl; Nle at 4; D-Nal(2') (nal) at 7; Asp5-Lys10 side-chain lactam ring; C-terminal amide; backbone N-methyl on Arg8 and Lys10 (alpha-MSH numbering 4-10)
B8: Peptide 10: Ac-Nle-c[Asp-(NMe)His-nal-Arg-Trp-(NMe)Lys]-NH2 (peptide)
peptide: LDHXRWK
modifications: N-terminal acetyl; Nle at 4; D-Nal(2') (nal) at 7; Asp5-Lys10 side-chain lactam ring; C-terminal amide; backbone N-methyl on His6 and Lys10 (alpha-MSH numbering 4-10)
B9: Peptide 11: Ac-Nle-c[Asp-His-nal-(NMe)Arg-(NMe)Trp-Lys]-NH2 (peptide)
peptide: LDHXRWK
modifications: N-terminal acetyl; Nle at 4; D-Nal(2') (nal) at 7; Asp5-Lys10 side-chain lactam ring; C-terminal amide; backbone N-methyl on Arg8 and Trp9 (alpha-MSH numbering 4-10)
B10: Peptide 14: Ac-Nle-c[Asp-His-(NMe)nal-(NMe)Arg-Trp-Lys]-NH2 (peptide)
peptide: LDHXRWK
modifications: N-terminal acetyl; Nle at 4; D-Nal(2') (nal) at 7; Asp5-Lys10 side-chain lactam ring; C-terminal amide; backbone N-methyl on nal7 and Arg8 (alpha-MSH numbering 4-10)
B11: Peptide 16: Ac-Nle-c[Asp-(NMe)His-(NMe)nal-Arg-Trp-Lys]-NH2 (peptide)
peptide: LDHXRWK
modifications: N-terminal acetyl; Nle at 4; D-Nal(2') (nal) at 7; Asp5-Lys10 side-chain lactam ring; C-terminal amide; backbone N-methyl on His6 and nal7 (alpha-MSH numbering 4-10)
B12: Peptide 19: Ac-Nle-c[Asp-(NMe)His-nal-Arg-(NMe)Trp-(NMe)Lys]-NH2 (peptide)
peptide: LDHXRWK
modifications: N-terminal acetyl; Nle at 4; D-Nal(2') (nal) at 7; Asp5-Lys10 side-chain lactam ring; C-terminal amide; backbone N-methyl on His6, Trp9 and Lys10 (alpha-MSH numbering 4-10)
B13: Peptide 28: Ac-Nle-c[Asp-(NMe)His-nal-(NMe)Arg-(NMe)Trp-(NMe)Lys]-NH2 (peptide)
peptide: LDHXRWK
modifications: N-terminal acetyl; Nle at 4; D-Nal(2') (nal) at 7; Asp5-Lys10 side-chain lactam ring; C-terminal amide; backbone N-methyl on His6, Arg8, Trp9 and Lys10 (alpha-MSH numbering 4-10)
B14: Peptide 32 (penta-N-methylated compound 32): Ac-Nle-c[Asp-(NMe)His-(NMe)nal-(NMe)Arg-(NMe)Trp-(NMe)Lys]-NH2 (peptide)
peptide: LDHXRWK
modifications: N-terminal acetyl; Nle at 4; D-Nal(2') (nal) at 7; Asp5-Lys10 side-chain lactam ring; C-terminal amide; backbone N-methyl on His6, nal7, Arg8, Trp9 and Lys10 (alpha-MSH numbering 4-10)
notes: NO; 32; No. 32 to the hMC1R antagonist

Assays:
[1] = molecular target: T1, human melanocortin 3 receptor (human, UniProt P41968 1-323); assay: assay not given; taken as the competition binding assay on HEK293 cells
T1 construct: whole, on cells; also called hMC3R; hMC3 receptor
T1 sequence (P41968 whole entry): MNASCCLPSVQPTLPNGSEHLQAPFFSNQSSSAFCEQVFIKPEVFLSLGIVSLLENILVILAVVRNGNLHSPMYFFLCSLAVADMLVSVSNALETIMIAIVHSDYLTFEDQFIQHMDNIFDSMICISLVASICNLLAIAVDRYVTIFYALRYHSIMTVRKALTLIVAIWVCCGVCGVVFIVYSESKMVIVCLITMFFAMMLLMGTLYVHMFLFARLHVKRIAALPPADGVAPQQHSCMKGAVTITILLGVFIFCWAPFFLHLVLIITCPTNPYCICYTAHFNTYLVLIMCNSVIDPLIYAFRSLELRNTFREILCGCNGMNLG

[2] = molecular target: T2, human melanocortin 1 receptor (human, UniProt Q01726 1-317); assay: competition with [125I]-NDP-alpha-MSH on A375 human melanoma cells
T2 construct: whole, on cells; also called hMC1R; hMC1 receptor
T2 sequence (Q01726 whole entry): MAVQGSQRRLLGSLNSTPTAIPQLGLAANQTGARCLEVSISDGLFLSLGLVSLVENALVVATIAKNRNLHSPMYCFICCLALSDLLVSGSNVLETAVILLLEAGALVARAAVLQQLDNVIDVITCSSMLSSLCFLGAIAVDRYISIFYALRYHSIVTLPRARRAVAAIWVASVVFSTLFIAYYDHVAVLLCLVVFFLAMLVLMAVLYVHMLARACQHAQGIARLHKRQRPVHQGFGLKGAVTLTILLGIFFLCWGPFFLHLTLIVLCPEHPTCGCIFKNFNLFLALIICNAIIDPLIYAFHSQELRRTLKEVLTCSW

[3] = molecular target: T3, human melanocortin 5 receptor (human, UniProt P33032 1-325); assay: competition with [125I]-NDP-alpha-MSH on whole HEK293 cells expressing the receptor
T3 construct: whole, on cells; also called hMC5R; hMC5 receptor
T3 sequence (P33032 whole entry): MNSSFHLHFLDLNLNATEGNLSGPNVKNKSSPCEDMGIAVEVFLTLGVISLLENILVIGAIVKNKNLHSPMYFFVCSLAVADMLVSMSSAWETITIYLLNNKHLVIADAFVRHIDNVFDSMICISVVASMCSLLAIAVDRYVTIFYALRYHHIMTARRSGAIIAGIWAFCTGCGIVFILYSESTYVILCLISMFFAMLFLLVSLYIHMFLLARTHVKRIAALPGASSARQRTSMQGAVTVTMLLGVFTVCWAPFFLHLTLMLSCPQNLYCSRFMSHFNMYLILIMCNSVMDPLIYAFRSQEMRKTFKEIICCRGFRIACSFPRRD

[4] = molecular target: T2, human melanocortin 1 receptor; assay: as above

Row | Binder | binding result [3] | further results
1 | B1 | binds | binding affinity [1]: 15 nM; IC50 [2]: 14.8 nM
2 | B2 | binds | –
3 | B3 | binds | –
4 | B4 | binds | –
5 | B5 | binds | –
6 | B6 | binds | –
7 | B7 | binds | –
8 | B8 | binds | –
9 | B9 | binds | –
10 | B10 | binds | –
11 | B11 | binds | –
12 | B12 | binds | –
13 | B13 | binds | –
14 | B14 | – | IC50 [4]: 68 nM
